In the assay the target is T1, FcγRIIa R (human, UniProt P12318 34-217).
T1 construct: extracellular domain; Soluble extracellular domain with C-terminal His tag, expressed in FreeStyle293 cells; also called FcgRIIa R; FcγRIIa type R; not shown: His tag attached to the C terminus
T1 sequence (looked up): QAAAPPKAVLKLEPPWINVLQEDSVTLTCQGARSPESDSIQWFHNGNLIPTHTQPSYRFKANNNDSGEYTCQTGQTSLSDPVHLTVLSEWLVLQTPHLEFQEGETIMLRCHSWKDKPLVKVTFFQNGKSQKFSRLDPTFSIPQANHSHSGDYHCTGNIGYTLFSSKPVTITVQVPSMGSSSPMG
Put plainly: SPR (Biacore), antibody captured via antigen peptide, FcγRIIa R as analyte; heterodimerized antibody. The method, then:
Analysis of interaction between objective antibody and the FcγR was carried out using Biacore T100 (GE Healthcare). HBS-EP+ (GE Healthcare) was used as the running buffer, and the measurement temperature was set to 25° C. Chips produced by immobilizing the antigen peptide by the amine coupling method to a Series S Sencor Chip CM5 (GE Healthcare), or alternatively, chips produced by allowing preliminarily biotinylated antigen peptides to interact with and immobilize onto a Series S Sensor Chip SA (certified) (GE Healthcare) were used. Antibodies of interest were captured onto an antigen peptide-immobilized chip, and allowed to interact to each FcγR diluted with running buffer. To regenerate and repeatedly use the chip, the antibodies captured on the chip were washed off by reacting 10 mM glycine-HCl, pH 1.5.

B1: GpH7-A5/GpH7-B3 variant L328_04F/GpL16-k0 (antibody, human IgG1, kappa)
heavy 1: not shown
heavy 2: not shown
light: DIVMTQSPLSLPVTPGEPASISCQASESLVHSNRNTYLHWYLQKPGQSPQLLIYKVSNRFSGVPDRFSGSGSGTDFTLKISRVEAEDVGVYYCSQNTHVPPTFGQGTKVEIERTVAAPSVFIFPPSDEQLKSGTASVVCLLNNFYPREAKVQWKVDNALQSGNSQESVTEQDSKDSTYSLSSTLTLSKADYEKHKVYACEVTHQGLSSPVTKSFNRGEC
notes: heterodimerized; mutation in one H chain only; also called He Ab
For the molecule B1, the He/Con_2aR was 138 % of control (GpH7-A5/GpH7-B3/GpL16-k0 = 100).

B2: GpH7-A5/GpH7-B3 variant K326_19Q/GpL16-k0 (antibody, human IgG1, kappa)
heavy 1: not shown
heavy 2: not shown
light: DIVMTQSPLSLPVTPGEPASISCQASESLVHSNRNTYLHWYLQKPGQSPQLLIYKVSNRFSGVPDRFSGSGSGTDFTLKISRVEAEDVGVYYCSQNTHVPPTFGQGTKVEIERTVAAPSVFIFPPSDEQLKSGTASVVCLLNNFYPREAKVQWKVDNALQSGNSQESVTEQDSKDSTYSLSSTLTLSKADYEKHKVYACEVTHQGLSSPVTKSFNRGEC
notes: as for B1
Take B2: the He/Con_2aR was 129 % of control (GpH7-A5/GpH7-B3/GpL16-k0 = 100).

B3: GpH7-A5/GpH7-B3 variant P238_08L/GpL16-k0 (antibody, human IgG1, kappa)
heavy 1: not shown
heavy 2: not shown
light: DIVMTQSPLSLPVTPGEPASISCQASESLVHSNRNTYLHWYLQKPGQSPQLLIYKVSNRFSGVPDRFSGSGSGTDFTLKISRVEAEDVGVYYCSQNTHVPPTFGQGTKVEIERTVAAPSVFIFPPSDEQLKSGTASVVCLLNNFYPREAKVQWKVDNALQSGNSQESVTEQDSKDSTYSLSSTLTLSKADYEKHKVYACEVTHQGLSSPVTKSFNRGEC
notes: as for B1
As for B3, the He/Con_2aR is 140 % of control (GpH7-A5/GpH7-B3/GpL16-k0 = 100).

B4: GpH7-A5/GpH7-B3 variant L328_15Y/GpL16-k0 (antibody, human IgG1, kappa)
heavy 1: not shown
heavy 2: not shown
light: DIVMTQSPLSLPVTPGEPASISCQASESLVHSNRNTYLHWYLQKPGQSPQLLIYKVSNRFSGVPDRFSGSGSGTDFTLKISRVEAEDVGVYYCSQNTHVPPTFGQGTKVEIERTVAAPSVFIFPPSDEQLKSGTASVVCLLNNFYPREAKVQWKVDNALQSGNSQESVTEQDSKDSTYSLSSTLTLSKADYEKHKVYACEVTHQGLSSPVTKSFNRGEC
notes: as for B1
Take B4: the He/Con_2aR is 136 % of control (GpH7-A5/GpH7-B3/GpL16-k0 = 100).

B5: GpH7-A5/GpH7-B3 variant K334_16H/GpL16-k0 (antibody, human IgG1, kappa)
heavy 1: not shown
heavy 2: not shown
light: DIVMTQSPLSLPVTPGEPASISCQASESLVHSNRNTYLHWYLQKPGQSPQLLIYKVSNRFSGVPDRFSGSGSGTDFTLKISRVEAEDVGVYYCSQNTHVPPTFGQGTKVEIERTVAAPSVFIFPPSDEQLKSGTASVVCLLNNFYPREAKVQWKVDNALQSGNSQESVTEQDSKDSTYSLSSTLTLSKADYEKHKVYACEVTHQGLSSPVTKSFNRGEC
notes: as for B1
As to B5, the He/Con_2aR is 109 % of control (GpH7-A5/GpH7-B3/GpL16-k0 = 100).

B6: GpH7-A5/GpH7-B3 variant L328_07I/GpL16-k0 (antibody, human IgG1, kappa)
heavy 1: not shown
heavy 2: not shown
light: DIVMTQSPLSLPVTPGEPASISCQASESLVHSNRNTYLHWYLQKPGQSPQLLIYKVSNRFSGVPDRFSGSGSGTDFTLKISRVEAEDVGVYYCSQNTHVPPTFGQGTKVEIERTVAAPSVFIFPPSDEQLKSGTASVVCLLNNFYPREAKVQWKVDNALQSGNSQESVTEQDSKDSTYSLSSTLTLSKADYEKHKVYACEVTHQGLSSPVTKSFNRGEC
notes: as for B1
Regarding B6, the He/Con_2aR is 124 % of control (GpH7-A5/GpH7-B3/GpL16-k0 = 100).

B7: GpH7-A5/GpH7-B3 variant S267_01G/GpL16-k0 (antibody, human IgG1, kappa)
heavy 1: not shown
heavy 2: not shown
light: DIVMTQSPLSLPVTPGEPASISCQASESLVHSNRNTYLHWYLQKPGQSPQLLIYKVSNRFSGVPDRFSGSGSGTDFTLKISRVEAEDVGVYYCSQNTHVPPTFGQGTKVEIERTVAAPSVFIFPPSDEQLKSGTASVVCLLNNFYPREAKVQWKVDNALQSGNSQESVTEQDSKDSTYSLSSTLTLSKADYEKHKVYACEVTHQGLSSPVTKSFNRGEC
notes: as for B1
Turning to B7, the He/Con_2aR is 113 % of control (GpH7-A5/GpH7-B3/GpL16-k0 = 100).

B8: GpH7-A5/GpH7-B3 variant K334_18N/GpL16-k0 (antibody, human IgG1, kappa)
heavy 1: not shown
heavy 2: not shown
light: DIVMTQSPLSLPVTPGEPASISCQASESLVHSNRNTYLHWYLQKPGQSPQLLIYKVSNRFSGVPDRFSGSGSGTDFTLKISRVEAEDVGVYYCSQNTHVPPTFGQGTKVEIERTVAAPSVFIFPPSDEQLKSGTASVVCLLNNFYPREAKVQWKVDNALQSGNSQESVTEQDSKDSTYSLSSTLTLSKADYEKHKVYACEVTHQGLSSPVTKSFNRGEC
notes: as for B1
In the case of B8, the He/Con_2aR was 112 % of control (GpH7-A5/GpH7-B3/GpL16-k0 = 100).

B9: GpH7-A5/GpH7-B3 variant S239_09D/GpL16-k0 (antibody, human IgG1, kappa)
heavy 1: not shown
heavy 2: not shown
light: DIVMTQSPLSLPVTPGEPASISCQASESLVHSNRNTYLHWYLQKPGQSPQLLIYKVSNRFSGVPDRFSGSGSGTDFTLKISRVEAEDVGVYYCSQNTHVPPTFGQGTKVEIERTVAAPSVFIFPPSDEQLKSGTASVVCLLNNFYPREAKVQWKVDNALQSGNSQESVTEQDSKDSTYSLSSTLTLSKADYEKHKVYACEVTHQGLSSPVTKSFNRGEC
notes: as for B1
In the case of B9, the He/Con_2aR is 137 % of control (GpH7-A5/GpH7-B3/GpL16-k0 = 100).

B10: GpH7-A5/GpH7-B3 variant S337_14T/GpL16-k0 (antibody, human IgG1, kappa)
heavy 1: not shown
heavy 2: not shown
light: DIVMTQSPLSLPVTPGEPASISCQASESLVHSNRNTYLHWYLQKPGQSPQLLIYKVSNRFSGVPDRFSGSGSGTDFTLKISRVEAEDVGVYYCSQNTHVPPTFGQGTKVEIERTVAAPSVFIFPPSDEQLKSGTASVVCLLNNFYPREAKVQWKVDNALQSGNSQESVTEQDSKDSTYSLSSTLTLSKADYEKHKVYACEVTHQGLSSPVTKSFNRGEC
notes: as for B1
B10: the He/Con_2aR is 110 % of control (GpH7-A5/GpH7-B3/GpL16-k0 = 100).

The values above are taken from patent US20180155451A1 (published 2018).
